Reference: US20250243261A1
Like-named read-outs stand apart in the source and are kept apart here.

What was measured:
[1] = target: HA H7 HK17, A/Hong Kong/125/2017(H7N9) (Influenza A virus)
[2] = target: HA H7 HK16, A/Hong Kong/61/2016(H7N9) (Influenza A virus)
[3] = target: HA H4 Hubei, A/swine/Hubei/06/2009(H4N1) (Influenza A virus)
[4] = target: HA H5 Vietnam, A/Vietnam/1203/2004(H5N1) (Influenza A virus)
[5] = target: HA H2 Japan, A/Japan/305/1957(H2N2) (Influenza A virus)
[6] = target: HA H4 Hubei, A/swine/Hubei/06/2009(H4N1) (Influenza A virus); remark: listed apart in the source
[7] = target: HA H7 HK17, A/Hong Kong/125/2017(H7N9) (Influenza A virus); remark: listed apart in the source
[8] = target: HA H7 HK16, A/Hong Kong/61/2016(H7N9) (Influenza A virus); remark: listed apart in the source
[9] = target: HA H7 HK17, A/Hong Kong/125/2017(H7N9) (Influenza A virus); remark: listed apart in the source

Row | Substance | Kd [2] [nM] | Kd [3] [nM] | further results
1 | MEDI8852 VH E65R Fab | 1.54 | 0.32 | Kd [1]: 0.036 nM; Kd [4]: < 0.001 nM; Kd [5]: < 0.001 nM
2 | MEDI8852 VH T53I Fab | 10.3 | 0.747 | 
3 | MEDI8852 VL T25A Fab | 16.8 | 1.45 | 
4 | MEDI8852 VL T33L Fab | 41 | 3.2 | 
5 | MEDI8852 VH I24V Fab | 8.58 | 0.87 | 
6 | MEDI8852 UCA VH K58S-V65P IgG (antibody) |  |  | Kd [6]: 80 nM
7 | MEDI8852 VL L29V Fab | 80 | 4.2 | 
8 | MEDI8852 VH E65R-M117Y Fab | 1.7 | 0.248 | Kd [1]: 0.02 nM; fold improvement in Kd vs wildtype [7]: 10 fold; fold improvement in Kd over wildtype [8]: 3.6 fold; Kd [4]: < 0.001 nM; Kd [5]: < 0.001 nM
9 | MEDI8852 VH E65P-M117Y Fab | 2.7 | 0.36 | Kd [1]: 0.043 nM
10 | MEDI8852 VL R92D Fab | 26.4 |  | 
11 | MEDI8852 VH M117Y Fab | 4.07 | 0.356 | 
12 | MEDI8852 VH S44G Fab | 7.03 | 0.596 | 
13 | MEDI8852 VL G55A Fab | 5.11 | 0.512 | 
14 | MEDI8852 VL G95P Fab | 5.31 | 0.802 | 
15 | MEDI8852 VH N74S Fab | 5.98 | 0.531 | 
16 | MEDI8852 VH P75R Fab | 7.14 | 0.779 | 
17 | MEDI8852 VH E65P Fab | 2.33 | 0.31 | Kd [1]: 0.1 nM; Kd [4]: < 0.001 nM; Kd [5]: < 0.001 nM
18 | MEDI8852 VH D27F Fab | 9 | 0.9 | 
19 | MEDI8852 UCA VH K58S-V65P/VL G95P IgG (antibody) |  |  | Kd [9]: 5.6 nM; Kd [6]: 30 nM
